Test results as given in patent US20150299314A1 (TORAY INDUSTRIES, published 2015).

Columns and labels:
[1] = target: T1, peptide set forth in SEQ ID NO: 268 (human); assay: ELISA on immobilized synthetic CAPRIN-1 peptides, culture supernatant
T1 peptide: FTSGEKEQVDEW

[2] = target: T2, polypeptide set forth in SEQ ID NO: 266 (human); assay: as above
T2 construct: Identified from ELISA on 93 synthetic peptides of 12 to 16 amino acids of human CAPRIN-1
T2 peptide: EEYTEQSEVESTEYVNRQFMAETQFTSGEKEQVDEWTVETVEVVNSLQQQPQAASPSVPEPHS

[3] = target: T3, CAPRIN-1 protein expressed on the cell surface of human cancer cells (human, UniProt Q14444 2-709); assay: cell-based or functional assay
T3 sequence (looked up): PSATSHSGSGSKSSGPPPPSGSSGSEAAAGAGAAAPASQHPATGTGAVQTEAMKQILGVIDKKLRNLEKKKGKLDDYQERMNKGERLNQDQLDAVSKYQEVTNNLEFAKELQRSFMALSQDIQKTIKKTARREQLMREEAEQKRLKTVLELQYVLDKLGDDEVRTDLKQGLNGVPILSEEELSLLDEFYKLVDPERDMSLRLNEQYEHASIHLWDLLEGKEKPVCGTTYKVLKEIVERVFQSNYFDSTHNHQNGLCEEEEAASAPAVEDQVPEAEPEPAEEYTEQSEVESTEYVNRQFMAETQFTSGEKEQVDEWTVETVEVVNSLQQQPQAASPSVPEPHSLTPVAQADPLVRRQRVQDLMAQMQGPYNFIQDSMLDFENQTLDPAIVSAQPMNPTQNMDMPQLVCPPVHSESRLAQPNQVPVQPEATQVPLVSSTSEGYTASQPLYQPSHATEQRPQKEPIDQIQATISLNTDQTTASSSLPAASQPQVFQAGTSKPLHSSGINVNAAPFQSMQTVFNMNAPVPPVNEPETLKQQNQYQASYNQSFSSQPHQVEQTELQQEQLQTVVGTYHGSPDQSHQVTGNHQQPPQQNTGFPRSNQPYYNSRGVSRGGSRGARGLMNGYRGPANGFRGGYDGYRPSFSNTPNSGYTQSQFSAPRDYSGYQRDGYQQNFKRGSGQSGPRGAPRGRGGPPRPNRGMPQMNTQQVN

[4] = target: T3, CAPRIN-1 protein expressed on the cell …; assay: flow cytometry, TGBC14TKB cells, culture supernatant, isotype control antibody as control
Experimental: Subsequently, a gallbladder cell line TGBC14TKB, which was confirmed to express a CAPRIN-1 gene, was investigated for whether or not a CAPRIN-1 protein is expressed on the surfaces of these cells. 1×10⁶ cells of TGBC14TKB were centrifuged with a 1.5-mL micro centrifugation tube. To the cells was added the culture supernatant (100 μL) containing any of anti-CAPRIN-1 mouse monoclonal antibodies #1 to #22 reacting to cancer cell surface produced in Example 4 and anti-CAPRIN-1 mouse-chicken chimeric antibodies #1 to #3 produced in the above (2), followed by being left to stand on ice for 1 hour. After washing with PBS, the cells were suspended in a FITC-labeled goat anti-mouse IgG antibody (manufactured by life technologies) diluted by 500-fold with PBS containing 0.1% FBS, followed by being left to stand on ice for 1 hour. After washing with PBS, the fluorescence intensity was measured with FACS Calibur available from Becton, Dickinson and Company. Separately, as a control, the same procedure as in above was performed using an iso-type control antibody, instead of the culture supernatants containing the anti-CAPRIN-1 mouse monoclonal antibodies #1 to #22 and the mouse-chicken chimeric antibodies #1 to #3. As a result, the fluorescence intensity in the cells to which any of the monoclonal antibodies #1 to #22 and the mouse-chicken chimeric antibodies #1 to #3 was added was 20% or more higher than that in the control in every case. Specifically, in the case of using mouse-chicken chimeric antibody #1, the fluorescence intensity was enhanced by 200% or more. […] The rate of increase in the fluorescence intensity is represented by the rate of increase in the mean fluorescence intensity (MFI value) in each cell and is calculated by the following calculation formula: […]

[5] = target: T4, polypeptide set forth in SEQ ID NO: 430 (human); assay: ELISA on 93 immobilized synthetic peptides of human CAPRIN-1, purified antibody 0.1 ug/mL
T4 peptide: ATQVPLVSSTSEGYTA
Experimental: Candidate peptides (93 peptides) each consisting of 12 to 16 amino acids of the amino acid sequence of the human CAPRIN-1 protein were synthesized and were each dissolved at a concentration of 1 mg/mL in DMSO. Each peptide was dissolved at a concentration of 30 μg/mL in a 0.1 M sodium carbonate buffer (pH 9.6). The solution was added to a 96-well plate (manufactured by Nunc, Product No. 436006) at 100 μL per well, followed by being left to stand at 4° C. overnight. The solution was removed, and 200 μL of 10 mM ethanolamine/0.1 M sodium carbonate buffer (pH 9.6) was added to each well, followed by being left to stand at room temperature for 1 hour. The solution was removed, and each well was washed with PBS containing 0.5% Tween 20 (PBST) twice to prepare a peptide-immobilized plate. For confirmation, this plate was also provided with a well to which the CAPRIN-1 protein was immobilized in accordance with the method described above. Rabbit anti-CAPRIN-1 monoclonal antibody #1 purified to a concentration of 0.1 ug/mL by a usual method was added to the plate at an amount of 50 μL per well, followed by shaking at room temperature for 1 hour. The solution was removed, and each well was washed with PBST three times. […] The absorbance was measured at 450 nm and 595 nm with an absorption spectrometer. […]

[6] = target: T4, polypeptide set forth in SEQ ID NO: 430; assay: ELISA as in Example 13(1), purified antibody

B1: mouse monoclonal antibody #5 (antibody, V domains shown)
VH: DAELVKPGASVKISCKASGYTFTDHSIHWVQQKPEQGLEWIGYISPGNGNIKYNEKFKGKATLTADKSSSTAYMQLNSLTSEDSAVYFCKRSLGRGGPYYFDYWGQGTTVTVSS
VL: DIVLTQAAPSLPVTPGESVSISCRSSKSLLHSNGNTYLYWFLQRPGQSPQLLIYRMSNLASGVPDRFSGSGSGTAFTLRISRVEAEDVGVYYCMQHREYPVTFGSGPN
notes: mouse hybridoma antibody; also called anti-CAPRIN-1 mouse monoclonal antibody #5; anti-CAPRIN-1 monoclonal antibody #5
[1]
  binding result: binds
[2]
  binding result: binds
[3]
  cytotoxicity (ADCC, 51Cr release) on TGBC14TKB, human NK cells: ≥ 15%
[4]
  rate of increase in mean fluorescence intensity over control: ≥ 20%

B2: rabbit anti-CAPRIN-1 monoclonal antibody #1 (antibody, V domains shown)
VH: QSLEESGGDLVKPGASLTLTCTASGFSFSGSYYMSWVRQAPGKGLEWIAYIYIGDGVTAYANWAKGRFTISKASSTTVTLQMTSLTAADTATYFCARGNKLWGPGTLVTVSS
VL: DVVMTQTPASVEAAVGGTVTIKCQASQSISSYLAWYQQKPGQPPKRLIYDASNLDSGVPSRFKGSGSGTDFTITISDLECADAATYYCQCTAVSSATIYGNAFGGGTEVVVK
notes: rabbit hybridoma antibody
[5]
  binding result: binds

B3: human-rabbit chimeric anti-CAPRIN-1 antibody #1 (antibody, V domains shown)
VH: QSLEESGGDLVKPGASLTLTCTASGFSFSGSYYMSWVRQAPGKGLEWIAYIYIGDGVTAYANWAKGRFTISKASSTTVTLQMTSLTAADTATYFCARGNKLWGPGTLVTVSS
VL: DVVMTQTPASVEAAVGGTVTIKCQASQSISSYLAWYQQKPGQPPKRLIYDASNLDSGVPSRFKGSGSGTDFTITISDLECADAATYYCQCTAVSSATIYGNAFGGGTEVVVK
notes: also called human-rabbit chimeric anti-CAPRIN-1 monoclonal antibody #1
[6]
  binding result: binds
